Like-named read-outs stand apart in the source and are kept apart here.

Assay [1] concerns the target T1, extracellular domain of human BMPR-IA (human, UniProt P36894 24-152).
For assay [2], the target named is T1, extracellular domain of human BMPR-IA. Put plainly: SPR; quality control of the recombinant ligands, as previously described (ref. 17). Background: In SPR one partner is held on a chip, and binding of the other changes the refractive index at the surface.
Assay [3] shares this target. Put plainly: cell-based or functional assay.

T1 sequence (P36894 24-152): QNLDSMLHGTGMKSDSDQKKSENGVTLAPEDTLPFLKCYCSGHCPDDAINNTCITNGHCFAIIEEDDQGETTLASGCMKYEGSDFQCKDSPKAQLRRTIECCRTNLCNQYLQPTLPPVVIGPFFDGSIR

Consider “GDF-5 R57A (growth and differentiation factor 5, variant R57A) (ligand)”, for which, in assay [1], the inhibition of ALP expression induced by 20 nM BMP-2 in C2C12 cells by increasing concentrations of GDF-5 R57A, IC50 was found to be 5 nM. The Kd (usually the constant that tells how readily two partners part at equilibrium) in assay [2] stood at 1.6 nM.

B1: human GDF-5 (growth and differentiation factor 5), wild type (ligand, UniProt P43026 382-501, looked up)
chain: APLATRQGKRPSKNLKARCSRKALHVNFKDMGWDDWIIAPLEYEAFHCEGLCEFPLRSHLEPTNHAVIQTLMNSMDPESTPPTCCVPTRLSPISILFIDSANNVVYKQYEDMVVESCGCR
notes: human growth and differentiation factor 5, recombinant from E. coli; Homodimer; also called wild-type GDF-5; GDF-5WT; source: E. coli, purified (as previously described)
In the case of B1, in assay [3], the “SMAD-1 phosphorylation in ATDC5 and C2C12 cells; concentration needed for phospho-SMAD levels comparable to BMP-2” value is around 10 fold; the “bone formation in the rat orthotopic (calvaria) model; amount of protein needed for the same ossified surface area as BMP-2 or GDF-5 R57A” value is around 20 fold; the “inhibition of ALP expression induced by 20 nM BMP-2 in C2C12 cells by increasing concentrations of wild-type GDF-5, IC50” value stood at 70 nM. In assay [2] (both partners purified), the Kd was 20 nM.

These data come from paper PMC4575486, “GDF-5 can act as a context-dependent BMP-2 antagonist” (BMC Biology, 2015).
